Test results as given in US7129055.
Several values for one entry are separate records, joined by “and”; a condition that tells them apart may be missing. Equal entries are not always repeated.

These substances were tested against C-C Chemokine Receptor 5 (CC-CKR5) (human) (UniProt P51681) (assay: cell-based or functional assay).

Row | Substance | sensitivity of 293T cells co-expressing CD4 and CC-CKR-5 to infection by pseudotyped luciferase reporter virus (orders of magnitude) | reduction of infection of HeLa cells expressing CD4 and CC-CKR-5 by macrophage-tropic virus; mixture of chemokines
1 | ADA Env (macrophage-tropic HIV-1 envelope glycoprotein) | 3 and 4 | 
2 | BaL Env (macrophage-tropic HIV-1 envelope glycoprotein) | 3 and 4 | 
3 | JRFL Env (macrophage-tropic HIV-1 envelope glycoprotein) | 3 and 4 | 
4 | MIP-1α (from UniProt P10147 23-92) (ligand) |  | 80% and 70%
5 | MIP-1β (from UniProt P13236 24-92) (ligand) |  | 70% and 80%
6 | RANTES (from UniProt P13501 24-91) (ligand) |  | 70% and 80%
